From patent US20160009788A1 (UNITED STATES OF AMERICA AS REPRESENTED BY THE SECRETARY …, published 2016)

Legend:
bovine serum albumin [1] = biological target: T1, bovine serum albumin (bovine, UniProt P02769 25-607); experiment: ELISA, antigen coated directly on the plate
T1 construct: Control antigen; also called BSA

bovine serum albumin [2] = biological target: T1, bovine serum albumin; experiment: ELISA, antigen on the solid phase, soluble Fab
[3] = biological target: MD145 virus-like particle (GII.4, capsid protein VP1) (Norovirus GII.4 strain MD145-12)
[4] = biological target: MD145 virus-like particle (GII.4, capsid protein VP1) (Norovirus GII.4 strain MD145-12); experiment: SPR (Biacore 1000), Fab on MD145 virus-like particle
[5] = biological target: T2, Norwalk virus (NV, GI.1) recombinant virus-like particles (capsid protein VP1) (Norwalk virus, UniProt Q83884 1-530)
T2 sequence: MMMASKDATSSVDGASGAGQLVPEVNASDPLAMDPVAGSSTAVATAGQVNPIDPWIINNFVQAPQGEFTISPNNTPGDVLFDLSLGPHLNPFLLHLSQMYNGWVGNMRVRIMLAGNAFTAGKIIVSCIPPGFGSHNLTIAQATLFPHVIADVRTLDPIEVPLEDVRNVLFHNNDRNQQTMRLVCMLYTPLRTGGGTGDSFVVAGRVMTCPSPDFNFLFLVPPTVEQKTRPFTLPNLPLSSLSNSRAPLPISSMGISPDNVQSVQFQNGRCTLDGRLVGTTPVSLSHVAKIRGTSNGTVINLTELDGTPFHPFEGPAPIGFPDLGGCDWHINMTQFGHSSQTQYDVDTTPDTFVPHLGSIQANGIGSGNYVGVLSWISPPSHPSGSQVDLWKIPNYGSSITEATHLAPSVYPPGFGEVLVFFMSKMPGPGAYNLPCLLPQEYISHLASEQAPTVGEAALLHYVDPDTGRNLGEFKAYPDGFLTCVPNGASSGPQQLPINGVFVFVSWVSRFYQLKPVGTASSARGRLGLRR

T1 sequence (P02769 25-607 limits assumed): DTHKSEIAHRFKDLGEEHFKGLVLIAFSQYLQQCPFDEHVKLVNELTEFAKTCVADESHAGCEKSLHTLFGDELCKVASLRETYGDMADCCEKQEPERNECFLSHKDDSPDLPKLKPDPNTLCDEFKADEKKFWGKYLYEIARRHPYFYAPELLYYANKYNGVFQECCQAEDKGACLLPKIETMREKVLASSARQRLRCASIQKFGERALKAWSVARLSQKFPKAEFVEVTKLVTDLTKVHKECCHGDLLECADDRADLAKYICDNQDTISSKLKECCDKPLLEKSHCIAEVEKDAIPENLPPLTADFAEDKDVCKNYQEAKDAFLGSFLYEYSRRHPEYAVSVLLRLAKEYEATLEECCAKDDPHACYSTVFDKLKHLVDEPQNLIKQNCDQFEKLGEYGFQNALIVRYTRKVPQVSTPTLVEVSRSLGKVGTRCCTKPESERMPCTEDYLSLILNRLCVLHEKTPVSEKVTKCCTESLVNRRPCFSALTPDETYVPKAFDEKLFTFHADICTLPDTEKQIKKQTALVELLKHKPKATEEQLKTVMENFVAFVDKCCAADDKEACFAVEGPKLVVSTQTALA

B1: anti-NV Fab D8 (Fab, V domains shown)
VH: EVQLEESGGGLVQPGGSLRVSCAASGFPFNGYWIHWVRQAPGKGLEWVSRVNSDGRITNFADSVMGRFTMSRDNAKSTVYLQMNSLRAEDTAMYYCSRGGYTGYPEGHWGQGTLVTVS
VL: ELQMTQSPSSLSAAVGDSVTITCRASQGISIHLAWYQQKPGKVPNLLIYAASTLQSGVPSRFSGSGSGTDFTLTINSLQPEVFATYYCQKYDSAPFTFGPGTKVDIKR
binding result (bovine serum albumin [1]): no binding

B2: anti-NV Fab B7 (Fab, V domains shown)
VH: EVQLEESGGDLVQPGGSLTLSCAASGFTFSRYWMSWVRQAPGKGPEWVASIKKDGSETFYADSVKGRFIISRDIAKTSLYLQMNSLRADDTAVYYCLRAWYSSAYDFWGQGTLVTVS
VL: ELELTQSPSSLSASVGDRVTITCRASQSISNYLNWYQQKPGKAPNLLIYYASTLQSGVPSRFSGSGSGTDFTLTISSLQPEDFATYYCQHGYGAIAFGQGTRLEIKR
binding result (bovine serum albumin [2]): no binding

B3: anti-NV Fab F11 (Fab, V domains shown)
VH: EVQLVETGGSLVQPGGSLRLSCAASGFSVSIYHMSWVRQAPGKGLEWVSLLYSGGSTYYADSVKGRFTISRDNSKNTLYLQMNSLRAEDTAVYYCARDYSGSWVGDEARSYYYYYYMDVWGKGTTVTVS
VL: ELQVTQSPSSLSASVGDRVTITCQASQDISYYLNWYQQRPGKVPKLLIYSASYLHSGVPSRFSGSGSGTDFTLTISSLQPEDVATYYCQRTYNAPYTFGQGTKVEIKR
binding result (bovine serum albumin [2]): no binding

B4: anti-NoV GII.4 mAb G3 (IgG) (antibody, V domains shown)
VH: EVQLEQSGGGLVKPGGSLRLSCAGSGFSFSAHTINWVRQAPGKGLEWVGFIRSQAQGGTREYAASVKGRIILSRDDSENSAYLQMNSLNTGDTAVYYCARDSSRGYYSYYLDVWGKGTTVTVSS
VL: ELTQSPSSLSASVGDRVTITCRASQGISNRLNWYQQKPGKAPKLLIYDASSLESGVPSRFSGSGSGTDFTLTISSQQPEDFATYYCQQFNSYPLTFGGGTKVEIKR
IC50 (read off the curve) [3]: 1 µg/mL

B5: anti-GII.4 NV Fab G3 (Fab, V domains shown)
VH: EVQLEQSGGGLVKPGGSLRLSCAGSGFSFSAHTINWVRQAPGKGLEWVGFIRSQAQGGTREYAASVKGRIILSRDDSENSAYLQMNSLNTGDTAVYYCARDSSRGYYSYYLDVWGKGTTVTVSS
VL: ELTQSPSSLSASVGDRVTITCRASQGISNRLNWYQQKPGKAPKLLIYDASSLESGVPSRFSGSGSGTDFTLTISSQQPEDFATYYCQQFNSYPLTFGGGTKVEIKR
Kd [4]: 2.61 nM | koff [4]: 0.000421 s⁻¹ | kon [4]: 162000 M⁻¹ s⁻¹

B6: anti-NV Fab E5 (Fab, V domains shown)
VH: EVQLEQSGGGLIKPGGSLRLSCAASGFTFTKYVMHWVRQAPEKGLQWVSAIGGSGGSAWYADSVKGRFTISRDNSKNTLYLQMNSLRAEDTAVYYCARDHARYSGYNSPHEVDSWGQGTLVAVS
VL: ELELTQSPSSLSASVGDRVTITCRASQGISNYLAWYQQKPGKVPKLLIYAASTLQSGVPSRFSGSGSGTDFTLTISSLQPEDVATYYCQKYNSAPLTFGGGTKVEIKR
notes: also called ES [sic]
binding result (bovine serum albumin [2]): no binding

B7: anti-GII.4 NV Fab B72 (Fab, V domains shown)
VH: EVQLEQSGAEVKKPGSSVKVSCKISGGTFSRHPISWVRQAPGQGLLWMGAIILRAGTTKYEQRFQGRITITADESTGTAYMELHSLTSEDTGLYFCATDRMGTFDELLFDSWGQGTLVTVSS
VL: ELQMTQSPASLSASVGDRVTITCRASQGIRNNLGWYQQKPGKPPKLLIYAASTLQSGVPSRFSGSGSGTGFTLTISSLQPEDFATYYCLQDYDFPLTFGGGTKVEIKR
Kd [4]: 0.351 nM | koff [4]: 5.66e-05 s⁻¹ | kon [4]: 161000 M⁻¹ s⁻¹

B8: anti-NV IgG G4 (antibody, V domains shown)
VH: EVQLEESGGGLVKPGGSLRLSCAASGFTFSHYVMYWVRQAPEKGLEWVSTISGSGSSTWYPDSVKGRFTVSRDNSKNTLYLQMNSLRGDDTAVYYCARLQGQLVYWGLGTLVTVS
VL: ELQMTQSPSTLSASVGDRVTITCRASQGISSWLAWYQQKPGRAPKLLIYKSSTLESGVPSRFSGSGSGTEFTLTISSLQPDDFATYFCQQYSSNPPLTFGGGTKVEIKR
IC50 [5]: ~2.8 nM

B9: anti-NoV GII.4 mAb D4 (IgG) (antibody, V domains shown)
VH: EVQLVESGPGLVKPSETLSLTCAVSGASIRRANWWGWIRQAPGKGLEWLGSIFINAGTIYNPSLTGRVTVSADTSKNLFSLKLGSVTAADTAVYYCVKSYGDGDDNYNSFYYYMDVWGKGTSVIVSS
VL: DVVMTQSPSSLSASVGDRVTITCRASQDIRNNLAWYQHKPGKAPKLLIYYASKLQSGVPLRFSGSGSGTDYTLFISSLQPEDFATYYCQQYKTDTPYSFGQGTKVDIKR
IC50 (read off the curve) [3]: 1 µg/mL

B10: anti-GII.4 NV Fab D4 (Fab, V domains shown)
VH: EVQLVESGPGLVKPSETLSLTCAVSGASIRRANWWGWIRQAPGKGLEWLGSIFINAGTIYNPSLTGRVTVSADTSKNLFSLKLGSVTAADTAVYYCVKSYGDGDDNYNSFYYYMDVWGKGTSVIVSS
VL: DVVMTQSPSSLSASVGDRVTITCRASQDIRNNLAWYQHKPGKAPKLLIYYASKLQSGVPLRFSGSGSGTDYTLFISSLQPEDFATYYCQQYKTDTPYSFGQGTKVDIKR
Kd [4]: 0.121 nM | koff [4]: 0.000178 s⁻¹ | kon [4]: 1.47e+06 M⁻¹ s⁻¹

B11: anti-GII.4 NV Fab C9 (Fab, V domains shown)
VH: EVQLEESGGVLVKPGGSLRLSCAASGFTFSSHAMHWVRQAPGKGLEWVAIINSGHRADYADSVKDRFTISRDNSKNTLYLQMDSLRPEDTAFYYCAREGDQQDVAD
VL: ELTQSPSTLSASVGDRVTITCRASEDIMSYLAWYQQKPAKAPRLLIYYASSLQSGVPSRFSGSGSGTEFTLTISSLQPEDFATYYCQQLHTFPITFGPGTRLDIKRT
Kd [4]: 27.7 nM | koff [4]: 0.00382 s⁻¹ | kon [4]: 138000 M⁻¹ s⁻¹
